{"source": "paper PMC7721647", "about": "“The Human RNA Helicase DDX21 Presents a Dimerization Interface Necessary for Helicase Activity” (iScience, 2020)", "binders": {"B1": {"name": "dsRNA 15/30mer 3' overhang (dsRNA)", "RNA 1": "GUUUCGGAUCGACGC", "RNA 2": "GCGUCGAUCCGAAACUAUACUUAAUUUUAA"}}, "assay_in_all_cases": "fluorescence polarization; FP: 50 mM Tris pH 7.5, 50 mM KCl, 5 mM MgCl2, no ATP; Hill-slope fit; temperature not given in the material", "key": {"DDX21ΔNC": {"target": "T1, DDX21ΔNC (human, UniProt Q9NR30 186-710)", "T1 sequence": "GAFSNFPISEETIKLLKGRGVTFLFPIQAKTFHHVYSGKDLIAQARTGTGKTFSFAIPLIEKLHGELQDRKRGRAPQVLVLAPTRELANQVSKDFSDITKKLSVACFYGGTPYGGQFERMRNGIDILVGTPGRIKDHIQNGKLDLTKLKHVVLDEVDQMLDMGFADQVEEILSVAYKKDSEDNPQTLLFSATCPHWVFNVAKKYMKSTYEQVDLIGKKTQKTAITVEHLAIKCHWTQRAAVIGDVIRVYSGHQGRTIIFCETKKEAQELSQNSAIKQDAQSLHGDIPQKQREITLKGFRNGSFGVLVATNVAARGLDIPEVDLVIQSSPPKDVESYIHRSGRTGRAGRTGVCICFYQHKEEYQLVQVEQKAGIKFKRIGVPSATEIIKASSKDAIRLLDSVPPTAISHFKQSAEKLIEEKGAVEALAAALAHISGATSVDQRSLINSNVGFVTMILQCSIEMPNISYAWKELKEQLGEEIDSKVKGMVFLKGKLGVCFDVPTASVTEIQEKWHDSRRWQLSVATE", "details": "protein: recombinant, chain copies: 2"}, "DDX21Core": {"target": "T2, DDX21Core (human, UniProt Q9NR30 186-564)", "T2 sequence": "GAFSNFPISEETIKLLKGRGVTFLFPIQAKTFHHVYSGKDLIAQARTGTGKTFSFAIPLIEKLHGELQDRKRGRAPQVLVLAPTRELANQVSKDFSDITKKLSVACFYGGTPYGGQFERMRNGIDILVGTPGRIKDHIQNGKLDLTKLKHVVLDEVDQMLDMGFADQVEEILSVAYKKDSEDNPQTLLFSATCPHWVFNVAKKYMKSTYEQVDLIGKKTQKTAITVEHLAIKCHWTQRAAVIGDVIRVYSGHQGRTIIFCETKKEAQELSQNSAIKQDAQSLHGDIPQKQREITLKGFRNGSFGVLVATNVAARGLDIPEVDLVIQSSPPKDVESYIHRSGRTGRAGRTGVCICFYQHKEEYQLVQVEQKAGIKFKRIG", "details": "protein: recombinant"}, "DDX21ΔN": {"target": "T3, DDX21ΔN (human, UniProt Q9NR30 186-783)", "T3 sequence": "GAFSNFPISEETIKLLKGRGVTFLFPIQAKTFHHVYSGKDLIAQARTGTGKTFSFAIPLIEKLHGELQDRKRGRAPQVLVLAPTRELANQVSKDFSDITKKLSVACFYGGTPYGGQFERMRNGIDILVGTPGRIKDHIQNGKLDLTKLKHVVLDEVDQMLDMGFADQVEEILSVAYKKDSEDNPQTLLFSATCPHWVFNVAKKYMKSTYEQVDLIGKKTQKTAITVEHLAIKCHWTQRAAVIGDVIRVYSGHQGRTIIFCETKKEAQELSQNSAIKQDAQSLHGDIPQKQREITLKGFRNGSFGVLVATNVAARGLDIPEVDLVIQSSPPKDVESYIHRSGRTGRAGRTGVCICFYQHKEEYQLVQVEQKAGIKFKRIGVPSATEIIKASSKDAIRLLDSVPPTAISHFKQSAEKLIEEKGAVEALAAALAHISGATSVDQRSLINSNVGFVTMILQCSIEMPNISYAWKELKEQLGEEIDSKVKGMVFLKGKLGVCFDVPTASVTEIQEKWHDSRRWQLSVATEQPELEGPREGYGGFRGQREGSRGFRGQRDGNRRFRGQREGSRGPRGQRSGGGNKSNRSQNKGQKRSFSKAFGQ", "details": "protein: recombinant, chain copies: 2"}, "DDX21ΔN monomer": {"target": "T4, DDX21ΔN monomer (human, UniProt Q9NR30 186-783, L611R;A612R;A613R;A614R;L615R;A616R)", "T4 sequence": "T3 sequence with L426R, A427R, A428R, A429R, L430R, A431R", "details": "protein: recombinant"}, "[1]": {"details": "label: 5'-FAM on 15-mer, 3' overhang 15 nt"}}, "note": "Positions count from the first letter of the chain named."}
{"binder": "GUUUCGGAUCGACGC (ssRNA)", "note": "[15-mer ssRNA]", "values": [{"measurement": "Kd", "setting": "DDX21ΔNC; label: 5'-FAM, single strand", "result": "688 ± 52.7", "unit": "nM"}, {"measurement": "Kd", "setting": "DDX21Core; label: 5'-FAM, single strand", "result": "1520 ± 112", "unit": "nM"}, {"measurement": "Kd", "setting": "DDX21ΔN; label: 5'-FAM, single strand", "result": "40.3 ± 2.6", "unit": "nM"}, {"measurement": "Kd", "setting": "DDX21ΔN monomer; label: 5'-FAM, single strand", "result": "24.9 ± 1.7", "unit": "nM"}]}
{"binder": "B1", "values": [{"measurement": "Kd", "setting": "DDX21ΔNC; [1]", "result": "217 ± 10.4", "unit": "nM"}, {"measurement": "Kd", "setting": "DDX21Core; [1]", "result": "353 ± 27.9", "unit": "nM"}, {"measurement": "Kd", "setting": "DDX21ΔN; [1]", "result": "15.5 ± 0.8", "unit": "nM"}, {"measurement": "Kd", "setting": "DDX21ΔN monomer; [1]", "result": "122 ± 19.3", "unit": "nM"}]}
